# B1: Tm1743 (Thermotoga maritima MSB8) (protein)
# chain: MLYKELGRTGEEIPALGLGTWGIGGFETPDYSRDEEMVELLKTAIKMGYTHIDTAEYYGGGHTEELIGKAIKDFRREDLFIVSKVWPTHLRRDDLLRSLENTLKRLDTDYVDLYLIHWPNPEIPLEETLSAMAEGVRQGLIRYIGVSNFDRRLLEEAISKSQEPIVCDQVKYNIEDRDPERDGLLEFCQKNGVTLVAYSPLRRTLLSEKTKRTLEEIAKNHGATIYQIMLAWLLAKPNVVAIPKAGRVEHLRENLKATEIKLSEEEMKLLDSLG
# B2: Tm1743 (Thermotoga maritima MSB8; W21S/W86N) (protein)
# chain: MLYKELGRTGEEIPALGLGTSGIGGFETPDYSRDEEMVELLKTAIKMGYTHIDTAEYYGGGHTEELIGKAIKDFRREDLFIVSKVNPTHLRRDDLLRSLENTLKRLDTDYVDLYLIHWPNPEIPLEETLSAMAEGVRQGLIRYIGVSNFDRRLLEEAISKSQEPIVCDQVKYNIEDRDPERDGLLEFCQKNGVTLVAYSPLRRTLLSEKTKRTLEEIAKNHGATIYQIMLAWLLAKPNVVAIPKAGRVEHLRENLKATEIKLSEEEMKLLDSLG
# B3: Tm1743 (Thermotoga maritima MSB8; W118H/W21L) (protein)
# chain: MLYKELGRTGEEIPALGLGTLGIGGFETPDYSRDEEMVELLKTAIKMGYTHIDTAEYYGGGHTEELIGKAIKDFRREDLFIVSKVWPTHLRRDDLLRSLENTLKRLDTDYVDLYLIHHPNPEIPLEETLSAMAEGVRQGLIRYIGVSNFDRRLLEEAISKSQEPIVCDQVKYNIEDRDPERDGLLEFCQKNGVTLVAYSPLRRTLLSEKTKRTLEEIAKNHGATIYQIMLAWLLAKPNVVAIPKAGRVEHLRENLKATEIKLSEEEMKLLDSLG
# B4: Tm1743 (Thermotoga maritima MSB8; W118E/W21L) (protein)
# chain: MLYKELGRTGEEIPALGLGTLGIGGFETPDYSRDEEMVELLKTAIKMGYTHIDTAEYYGGGHTEELIGKAIKDFRREDLFIVSKVWPTHLRRDDLLRSLENTLKRLDTDYVDLYLIHEPNPEIPLEETLSAMAEGVRQGLIRYIGVSNFDRRLLEEAISKSQEPIVCDQVKYNIEDRDPERDGLLEFCQKNGVTLVAYSPLRRTLLSEKTKRTLEEIAKNHGATIYQIMLAWLLAKPNVVAIPKAGRVEHLRENLKATEIKLSEEEMKLLDSLG
# B5: Tm1743 (Thermotoga maritima MSB8; W21S/W86E) (protein)
# chain: MLYKELGRTGEEIPALGLGTSGIGGFETPDYSRDEEMVELLKTAIKMGYTHIDTAEYYGGGHTEELIGKAIKDFRREDLFIVSKVEPTHLRRDDLLRSLENTLKRLDTDYVDLYLIHWPNPEIPLEETLSAMAEGVRQGLIRYIGVSNFDRRLLEEAISKSQEPIVCDQVKYNIEDRDPERDGLLEFCQKNGVTLVAYSPLRRTLLSEKTKRTLEEIAKNHGATIYQIMLAWLLAKPNVVAIPKAGRVEHLRENLKATEIKLSEEEMKLLDSLG
# Substrate: CCOC(=O)C(=O)CCc1ccccc1
# Assay: purified protein
# Type: biochemical, Thermotoga maritima
# Details: apparent, 0.25 mM NADPH, 50 mM potassium phosphate pH 6.5, 35 °C, 30 mM DMSO
Molecule,Km [µM],kcat [s⁻¹],kcat/Km [M⁻¹ s⁻¹]
B1,1100 ± 40,1.96 ± 0.02,1780 ± 30
B2,1620 ± 20,0.84 ± 0.01,510 ± 20
B3,15980 ± 200,1.98 ± 0.01,120 ± 10
B4,10530 ± 100,1.98 ± 0.02,190 ± 10
B5,1250 ± 20,1.01 ± 0.01,810 ± 20

# Target: T1, Tm1743 (Thermotoga maritima, UniProt Q9X265)
# T1 construct: gene TM_1743
# Assay: X-ray crystal structure, […] Å
# Details: co-crystallised, protein:NADP+ 1:1.5 molar; cofactor binding site
row,Molecule,"X-ray crystal structure, 2.0 Å"
1,NC(=O)c1ccc[n+]([C@@H]2O[C@H](COP(=O)(O)OP(=O)(O)OC[C@H]3O[C@@H](n4cnc5c(N)ncnc54)[C@H](OP(=O)(O)O)[C@@H]3O)[C@@H](O)[C@H]2O)c1 [NADP^+],we crystallized Tm1743 in complex with the cofactor NADP^+

# Reference: paper PMC5479831, “Semi-rational engineering of a thermostable aldo–keto reductase from Thermotoga maritima for synthesis of enantiopure ethyl-2-hydroxy-4-phenylbutyrate (EHPB)” (Scientific Reports, 2017)
